For the experiment, the target named is T1, Bordetella bacteriophage major tropism determinant variant Mtd-P1 (Bordetella bacteriophage BPP-1), Q775D6.
T1 chain: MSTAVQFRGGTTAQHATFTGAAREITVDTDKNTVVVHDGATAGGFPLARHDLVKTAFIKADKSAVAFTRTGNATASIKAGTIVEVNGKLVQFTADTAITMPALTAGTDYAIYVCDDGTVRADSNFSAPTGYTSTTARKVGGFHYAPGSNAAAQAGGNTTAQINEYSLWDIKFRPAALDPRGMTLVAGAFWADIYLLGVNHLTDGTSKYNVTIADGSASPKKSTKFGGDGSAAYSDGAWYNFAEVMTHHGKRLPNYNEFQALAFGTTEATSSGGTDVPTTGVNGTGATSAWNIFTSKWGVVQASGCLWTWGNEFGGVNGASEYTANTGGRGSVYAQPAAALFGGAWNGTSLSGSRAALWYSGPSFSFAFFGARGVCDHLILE
As to the kind of experiment: crystal structure; Mtd-P1·Prn-E complex formed with ~1.6-fold molar excess of Mtd-P1 trimers over His-tagged Prn-E, isolated by Ni2+-chelation and Superdex 200; crystals at 25 °C in 2 M NaCl, 100 mM Tris pH 8.5, 200 mM Li2SO4; 3.16 Å. To be noted: remark: other sources report otherwise.

B1: Bordetella bacteriophage major tropism determinant variant Mtd-P1, Q775D6 1-381 (natural protein)
chain: MSTAVQFRGGTTAQHATFTGAAREITVDTDKNTVVVHDGATAGGFPLARHDLVKTAFIKADKSAVAFTRTGNATASIKAGTIVEVNGKLVQFTADTAITMPALTAGTDYAIYVCDDGTVRADSNFSAPTGYTSTTARKVGGFHYAPGSNAAAQAGGNTTAQINEYSLWDIKFRPAALDPRGMTLVAGAFWADIYLLGVNHLTDGTSKYNVTIADGSASPKKSTKFGGDGSAAYSDGAWYNFAEVMTHHGKRLPNYNEFQALAFGTTEATSSGGTDVPTTGVNGTGATSAWNIFTSKWGVVQASGCLWTWGNEFGGVNGASEYTANTGGRGSVYAQPAAALFGGAWNGTSLSGSRAALWYSGPSFSFAFFGARGVCDHLILE
B1: the stoichiometry N is 3.

For the origin of these results see PMC2408619.
